T1: FLAG-tagged human RSPO3 (Genentech) (human, UniProt Q9BXY4 22-272)
T1 construct: also called hRSPO3; RSPO3 coated plates; not shown: FLAG tag
T1 sequence: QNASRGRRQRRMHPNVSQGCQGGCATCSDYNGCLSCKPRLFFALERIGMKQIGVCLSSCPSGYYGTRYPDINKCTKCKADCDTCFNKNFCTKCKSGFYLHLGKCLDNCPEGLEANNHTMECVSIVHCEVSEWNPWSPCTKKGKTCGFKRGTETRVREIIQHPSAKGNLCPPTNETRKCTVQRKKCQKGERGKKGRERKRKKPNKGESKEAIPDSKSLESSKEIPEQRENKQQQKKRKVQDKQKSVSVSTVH

T2: human RSPO3 with C-terminal HA tag, stably expressed in 293 cells (human, UniProt Q9BXY4 22-272)
T2 construct: Whole open reading frame expressed in HEK-293 cells (high, medium, low); FFPE pellets; also called hRSPO3; RSPO3 Hi
T2 sequence: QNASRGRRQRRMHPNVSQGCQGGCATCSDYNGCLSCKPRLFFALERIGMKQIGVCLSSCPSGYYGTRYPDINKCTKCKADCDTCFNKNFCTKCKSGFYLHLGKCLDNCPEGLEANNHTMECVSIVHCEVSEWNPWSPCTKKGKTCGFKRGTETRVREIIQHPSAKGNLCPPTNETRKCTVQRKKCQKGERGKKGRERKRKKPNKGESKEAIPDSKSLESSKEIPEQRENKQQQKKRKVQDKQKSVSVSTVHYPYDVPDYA

T3: mouse RSPO3 (mouse, UniProt Q2TJ95 22-277, limits assumed)
T3 sequence (looked up): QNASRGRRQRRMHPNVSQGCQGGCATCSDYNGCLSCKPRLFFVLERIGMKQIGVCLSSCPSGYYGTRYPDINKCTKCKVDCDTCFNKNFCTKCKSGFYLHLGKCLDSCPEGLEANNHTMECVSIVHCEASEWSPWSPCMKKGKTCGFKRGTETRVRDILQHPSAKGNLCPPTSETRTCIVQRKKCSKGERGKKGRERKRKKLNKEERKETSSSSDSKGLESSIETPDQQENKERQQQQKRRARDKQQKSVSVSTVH

T4: recombinant human RSPO3 (human, UniProt Q9BXY4 22-272)
T4 sequence: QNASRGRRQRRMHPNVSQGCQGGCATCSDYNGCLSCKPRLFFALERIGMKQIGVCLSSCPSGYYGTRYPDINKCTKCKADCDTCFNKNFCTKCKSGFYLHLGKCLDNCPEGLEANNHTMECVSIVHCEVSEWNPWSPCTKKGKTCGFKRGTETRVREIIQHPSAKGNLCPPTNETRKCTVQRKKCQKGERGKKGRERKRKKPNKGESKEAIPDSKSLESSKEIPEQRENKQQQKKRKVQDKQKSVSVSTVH

T5: cynomolgus RSPO3 (cynomolgus, UniProt A0A2K5UTQ7 22-273)
T5 sequence: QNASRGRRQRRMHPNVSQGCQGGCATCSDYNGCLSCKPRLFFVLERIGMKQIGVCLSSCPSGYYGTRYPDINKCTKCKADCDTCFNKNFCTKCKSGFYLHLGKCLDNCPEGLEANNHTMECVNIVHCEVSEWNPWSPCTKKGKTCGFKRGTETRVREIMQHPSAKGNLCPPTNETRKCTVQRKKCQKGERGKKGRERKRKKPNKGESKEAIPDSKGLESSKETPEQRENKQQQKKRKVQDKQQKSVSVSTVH


What was measured:
[1] = biological target: T6, human RSPO4 with C-terminal HA tag, stably expressed in 293 cells (human, UniProt Q2I0M5 20-234); assay: IHC, FFPE 293 cell pellet, RSPO4 Hi; - = not significant staining
T6 construct: also called hRSPO4; RSPO4 Hi

[2] = biological target: T1, FLAG-tagged human RSPO3 (Genentech); assay: competitive binding ELISA: antibody titrated against LGR4-Fc (LGR4-ECD) binding to plate-coated hRSPO3; signal = bound LGR4-Fc, OD(450/630)/OD no antibody
Protocol: To measure the activity of anti-RSPO antibodies in blocking the binding of LGR4 and -5 ECDs to RSPOs, MaxiSorp 384-well microwell plates (Thermo Scientific Nunc, Roskilde, Denmark) were coated with 25 ul/well of 0.5 μg/ml hRSPO2 or hRSPO3 (Genentech) in 50 mM carbonate buffer, pH 9.6, overnight at 4° C. Plates were blocked with at 80 ul/well of 0.5% bovine serum albumin, 15 parts per million Proclin 300 in phosphate buffered saline (PBS), pH 7.4, for 1 hour. Serially diluted anti-RSPO antibodies ([…] in […] serial dilution plus buffer blank) containing 0.1 μg/ml LGR4-Fc or 0.015 μg/ml LGR5-Fc in assay buffer (0.5% BSA, 0.05% polysorbate 20, 15 parts per million Proclin 300 in PBS) were added to the plates at 25 ul/well. After a 2-hour incubation, LGR4-Fc and LGR5-Fc bound to the plates were detected using peroxidase labeled goat F(ab′)2 anti-human Fc (Jackson ImmunoResearch, West Grove, Pa.). After a 1 hour incubation, the substrate 3,3′,5,5′-tetramethyl benzidine (Moss Inc., Pasadena, Md.) was added to the plates and the reaction was stopped by adding 1 M phosphoric acid. Plates were washed with PBS, pH 7.4, containing 0.05% tween 20, between steps and all the incubation steps following the coating step were performed at room temperature on an orbital shaker. Absorbance was read at 450 nm on a multiskan Ascent reader (Thermo Scientific, Hudson, N.H.).

[3] = biological target: T7, human RSPO1 with C-terminal HA tag, stably expressed in 293 cells (human, UniProt Q2MKA7 21-263); assay: IHC, FFPE 293 cell pellet, RSPO1 Hi; - = not significant staining
T7 construct: also called hRSPO1; RSPO1 Hi

[4] = biological target: T2, human RSPO3 with C-terminal HA tag, …; assay: IHC, FFPE 293 cell pellet, RSPO3 Hi
mouse RSPO3 [5] = biological target: T3, mouse RSPO3; assay: cell-based or functional assay
recombinant human RSPO2 = recombinant human RSPO2 (human, UniProt Q6UXX9 22-243); assay: cell-based or functional assay
recombinant human RSPO3 [6] = biological target: T4, recombinant human RSPO3; assay: cell-based or functional assay
mouse RSPO2 = mouse RSPO2 (mouse, UniProt Q8BFU0 22-205, limits assumed); assay: cell-based or functional assay
cynomolgus RSPO3 [7] = biological target: T5, cynomolgus RSPO3; assay: cell-based or functional assay
cynomolgus RSPO2 = cynomolgus RSPO2 (cynomolgus, UniProt G7PCH9 22-243); assay: cell-based or functional assay
[8] = biological target: T2, human RSPO3 with C-terminal HA tag, …; assay: IHC, FFPE 293 cell pellet, RSPO3 Low
[9] = biological target: T1, FLAG-tagged human RSPO3 (Genentech); assay: competitive binding ELISA: titrated against biotinylated RNF43-Flag (RNF43-ECD) binding to plate-coated hRSPO3; signal = bound RNF43, normalized OD
[10] = biological target: T2, human RSPO3 with C-terminal HA tag, …; assay: IHC, FFPE 293 cell pellet, RSPO3 Med
mouse RSPO3 [11] = biological target: T3, mouse RSPO3; assay: SPR, BIAcore T200, murine RSPO3 immobilized, antibody injected
Protocol: (§1) The binding affinity of the antibodies in this section was determined by BIAcore™ T200 Format. Briefly, BIAcore™ research grade CMS chips were activated with 1-ethyl-3-(3-dimethylaminopropyl) carbodiimide (EDC) and N-hydroxysuccinimide (NETS) reagents according to the supplier's instructions. huRSPO3 was immobilized to achieve approximately 50 response units (RU) in each flow cell. Unreacted coupling groups were blocked with 1M ethanolamine. For kinetics measurements, Four-fold serial dilutions of variant antibody was injected in HBS-P buffer (0.01M HEPES pH7.4, 0.15M NaCl, 0.005% surfactant P20) at 25° C. with a flow rate of 30 μl/min. Association rates (kon) and dissociation rates (koff) were calculated using a 1:1 Langmuir binding model (BIAcore™ T200 Evaluation Software version 2.0). The equilibrium dissociation constant (Kd) was calculated as the ratio koff/kon.
(§2) The hu5D6v4.1 and the chimeric 5D6 were tested for their ability to bind cyno and mouse RSPO3 as described above except that cyno or murine RSPO3 replaced huRSPO3 in the binding assay. Binding properties for the humanized antibodies are shown below in Table 5.

recombinant human RSPO3 [12] = biological target: T4, recombinant human RSPO3; assay: SPR, BIAcore T200, huRSPO3 immobilized, antibody injected
Protocol: as §1

cynomolgus RSPO3 [13] = biological target: T5, cynomolgus RSPO3; assay: SPR, BIAcore T200, cyno RSPO3 immobilized, antibody injected
Protocol: as §1, §2

Chain of cynomolgus RSPO2 (G7PCH9 entry or part of it): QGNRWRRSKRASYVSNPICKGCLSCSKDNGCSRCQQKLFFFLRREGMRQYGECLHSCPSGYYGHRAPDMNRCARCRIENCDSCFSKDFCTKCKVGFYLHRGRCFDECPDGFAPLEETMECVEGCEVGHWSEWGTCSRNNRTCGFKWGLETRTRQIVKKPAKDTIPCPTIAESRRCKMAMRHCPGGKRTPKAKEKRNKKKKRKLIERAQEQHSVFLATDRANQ
Chain of recombinant human RSPO2 (Q6UXX9 22-243): as the sequence (G7PCH9 entry or part of it) above, with A160V, P165L, A178T counted along it
Chain of mouse RSPO2 (Q8BFU0 22-205 limits assumed): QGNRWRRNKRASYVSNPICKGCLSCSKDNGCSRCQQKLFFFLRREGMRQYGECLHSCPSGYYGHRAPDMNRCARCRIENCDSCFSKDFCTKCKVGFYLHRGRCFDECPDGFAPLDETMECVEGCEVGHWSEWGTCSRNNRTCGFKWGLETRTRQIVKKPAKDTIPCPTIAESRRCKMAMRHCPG
T6 sequence (Q2I0M5 other isoform, or with tags, fused parts or gaps limits assumed): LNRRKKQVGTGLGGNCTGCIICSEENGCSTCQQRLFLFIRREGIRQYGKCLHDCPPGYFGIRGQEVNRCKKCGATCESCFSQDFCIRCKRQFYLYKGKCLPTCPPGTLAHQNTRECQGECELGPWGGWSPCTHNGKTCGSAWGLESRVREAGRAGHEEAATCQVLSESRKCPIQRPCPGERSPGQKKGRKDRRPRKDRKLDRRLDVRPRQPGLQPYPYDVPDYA
T7 sequence (Q2MKA7 other isoform, or with tags, fused parts or gaps limits assumed): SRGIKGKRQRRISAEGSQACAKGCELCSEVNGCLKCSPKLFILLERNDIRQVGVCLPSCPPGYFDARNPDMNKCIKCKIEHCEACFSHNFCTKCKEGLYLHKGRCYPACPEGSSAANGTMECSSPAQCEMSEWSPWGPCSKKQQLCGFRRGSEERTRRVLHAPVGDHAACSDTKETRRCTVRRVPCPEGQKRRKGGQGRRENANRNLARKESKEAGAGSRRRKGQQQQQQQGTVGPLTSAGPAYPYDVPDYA

binding result [1]	IC50 (read off the curve) [2] [µg/mL]	binding result [3]	percentage of cells staining [4] [%]	IC50, WNT luciferase reporter, bivalent antibody (mouse RSPO3 [5]) [nM]	IC50, WNT luciferase reporter, bivalent antibody (recombinant human RSPO2) [nM]	IC50, WNT luciferase reporter, bivalent antibody (recombinant human RSPO3 [6]) [nM]	IC50, WNT luciferase reporter, bivalent antibody (mouse RSPO2) [nM]	IC50, WNT luciferase reporter, bivalent antibody (cynomolgus RSPO3 [7]) [nM]	IC50, WNT luciferase reporter, bivalent antibody (cynomolgus RSPO2) [nM]	percentage of cells staining [8] [%]	IC50 (read off the curve) [9] [µg/mL]	percentage of cells staining [10] [%]	Kd (mouse RSPO3 [11]) [nM]	koff (mouse RSPO3 [11]) [s⁻¹]	kon (mouse RSPO3 [11]) [M⁻¹ s⁻¹]	Kd (recombinant human RSPO3 [12]) [nM]	koff (recombinant human RSPO3 [12]) [s⁻¹]	kon (recombinant human RSPO3 [12]) [M⁻¹ s⁻¹]	Kd (cynomolgus RSPO3 [13]) [nM]	Binder	further results
no binding	~0.1	no binding	> 95	140	> 500	5.6	> 500	6.5	> 500	50	~0.08	70								6E9 (antibody, V domains shown, also called monoclonal antibody 6E9) VH: QVQLKESGPGLVQPSQSLSITCTVSGFSLTSYGVHWVRQSPGKGLEWLGVIWSGGSTDYNAAFISRLSISKDNSKSQVFFKMNSLQANDTAIYYCARNDGYYYFDYWGQGTTLTVSS VL: DIKMTQSTSSLSASLGDRVTISCRASQDISNYLNWYQQKPDGTVKLLIYYTSRLHSGVPSRFSGSGSGTDYSLTISNLEQEDIATYFCQQGDTLPPAFGGGTKLEIK	
													0.0993	0.000423	4.26e+06	0.0635	0.000229	3.6e+06	0.0811	hu5D6v4.1 (Fab, V domains shown, Humanized 5D6 variant; also called v1+T69 (LC)+(W47+I48+V67+F78 (HC))) VH: EVQLVESGPGLVKPSETLSLTCTVSGDSITSGYWNWIRQPPGKGLEWIGYISYSGKTYQNPSLKSRVTISRDTSKNQFSLKLSSVTAADTAVYYCATYYGYGGPWFAYWGQGTLVTVSS VL: DIQMTQSPSSLSASVGDRVTITCKASQDIDSYLSWFQQKPGKAPKTLIYLTNRLVDGVPSRFSGSGSGTDYTLTISSLQPEDFATYYCLHYDEFPLTFGQGTKVEIK	koff (cynomolgus RSPO3 [13]): 0.000434 s⁻¹; kon (cynomolgus RSPO3 [13]): 5.35e+06 M⁻¹ s⁻¹
no binding	~0.1	no binding	> 95	0.001	> 500	0.0003	> 500	0.0003	> 500	30	~0.1	70								5D6 (antibody, V domains shown, Murine; also called monoclonal antibody 5D6; mu5D6) VH: EVQLQESGPSLVKPSQTLSLTCSVTGDSITSGYWNWIRKFPGNKFEYMGYISYSGKTYQNPSLKSRISITRDTSKNQYHLQLNSVTTEDTATYYCATYYGYGGPWFAYWGQGTLVTVSA VL: DIVLTQSPSSMYASLGERVTITCKASQDIDSYLSWFQQKPGKSPKTLIYLTNRLVDGVPSRFSGSGSGQDYSLTISSLEYEDMGIYYCLHYDEFPLTFGAGTKLEIK	
													0.0578	0.000237	4.1e+06	0.0331	0.000116	3.51e+06	0.0453	chimeric 5D6 (antibody, V domains shown, also called 5D6 chimera) VH: EVQLQESGPSLVKPSQTLSLTCSVTGDSITSGYWNWIRKFPGNKFEYMGYISYSGKTYQNPSLKSRISITRDTSKNQYHLQLNSVTTEDTATYYCATYYGYGGPWFAYWGQGTLVTVSA VL: DIVLTQSPSSMYASLGERVTITCKASQDIDSYLSWFQQKPGKSPKTLIYLTNRLVDGVPSRFSGSGSGQDYSLTISSLEYEDMGIYYCLHYDEFPLTFGAGTKLEIK	koff (cynomolgus RSPO3 [13]): 0.000224 s⁻¹; kon (cynomolgus RSPO3 [13]): 4.96e+06 M⁻¹ s⁻¹
no binding	~0.1	no binding	90	0.69	6.4	0.8	> 500	0.29	2.8	30	~0.08	60								4H1 (antibody, V domains shown, Hybridoma-derived monoclonal (mice or hamsters immunized with hRSPO2 and/or hRSPO3), cloned, expressed and purified; also called monoclonal antibody 4H1) VH: EVKLVESGGGFVKPGGSLKLSCAASGFTFSNFAMSWVRQSPEKRLEWVAEINNGGNYAYYQDTVTGRFTISRDNAKNTLYLEMSSLRSEDTAMYFCAREDYVNYEAYFAYWGQGTTLTVSS VL: SIVMTQTPLSLPVSLGDQASISCRSSQSIVHSNGNTYLEWYLQKPGQSPKLLIYRISNRFSGVPDRFSGSGSGTDFTLKISRVEAEDLGVYYCFQGSHVPYTFGGGTKLEIK	

— US20180312579A1 (Genentech, published 2018)
